Molecular target: T1, Strep-tagged WT UBE2O from Expi293F cells (human, UniProt Q9C0C9 1-1292)
T1 sequence (looked up): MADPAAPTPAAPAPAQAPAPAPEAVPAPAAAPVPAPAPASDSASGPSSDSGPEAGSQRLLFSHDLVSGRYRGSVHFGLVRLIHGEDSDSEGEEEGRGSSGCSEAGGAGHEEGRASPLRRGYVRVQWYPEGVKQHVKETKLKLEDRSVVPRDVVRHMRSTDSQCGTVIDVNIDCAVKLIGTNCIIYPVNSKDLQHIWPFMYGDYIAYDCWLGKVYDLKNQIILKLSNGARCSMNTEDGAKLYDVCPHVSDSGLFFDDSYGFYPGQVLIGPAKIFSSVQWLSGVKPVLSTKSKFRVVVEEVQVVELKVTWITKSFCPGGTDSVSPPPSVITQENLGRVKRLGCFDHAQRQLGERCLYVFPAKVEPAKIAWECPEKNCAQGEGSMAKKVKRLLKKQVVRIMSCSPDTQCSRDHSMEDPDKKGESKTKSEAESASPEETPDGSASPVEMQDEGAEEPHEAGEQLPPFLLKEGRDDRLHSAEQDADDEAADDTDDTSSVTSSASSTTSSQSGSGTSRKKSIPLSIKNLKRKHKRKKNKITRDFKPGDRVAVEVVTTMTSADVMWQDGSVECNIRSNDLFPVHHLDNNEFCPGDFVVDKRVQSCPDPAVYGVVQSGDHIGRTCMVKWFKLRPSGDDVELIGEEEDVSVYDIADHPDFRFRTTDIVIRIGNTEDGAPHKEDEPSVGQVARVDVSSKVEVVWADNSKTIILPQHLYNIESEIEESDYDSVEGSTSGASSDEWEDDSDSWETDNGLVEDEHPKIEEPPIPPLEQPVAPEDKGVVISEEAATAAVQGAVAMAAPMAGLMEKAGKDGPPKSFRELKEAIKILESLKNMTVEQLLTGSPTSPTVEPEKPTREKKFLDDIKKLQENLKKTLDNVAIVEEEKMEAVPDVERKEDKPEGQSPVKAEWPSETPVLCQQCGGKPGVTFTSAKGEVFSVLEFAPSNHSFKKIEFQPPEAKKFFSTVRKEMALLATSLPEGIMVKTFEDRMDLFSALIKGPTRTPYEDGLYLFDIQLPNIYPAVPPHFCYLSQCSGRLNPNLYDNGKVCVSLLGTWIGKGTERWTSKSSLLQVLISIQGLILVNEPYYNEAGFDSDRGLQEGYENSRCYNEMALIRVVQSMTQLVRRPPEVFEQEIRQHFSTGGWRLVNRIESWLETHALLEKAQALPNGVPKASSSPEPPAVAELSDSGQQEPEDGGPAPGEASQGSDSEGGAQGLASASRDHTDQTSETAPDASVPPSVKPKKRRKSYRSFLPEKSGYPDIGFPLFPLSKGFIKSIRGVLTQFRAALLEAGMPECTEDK
Test: SEC

B1: purified Strep-tagged NAP1L1 (natural protein, human, UniProt P55209 1-391, looked up)
chain: MADIDNKEQSELDQDLDDVEEVEEEETGEETKLKARQLTVQMMQNPQILAALQERLDGLVETPTGYIESLPRVVKRRVNALKNLQVKCAQIEAKFYEEVHDLERKYAVLYQPLFDKRFEIINAIYEPTEEECEWKPDEEDEISEELKEKAKIEDEKKDEEKEDPKGIPEFWLTVFKNVDLLSDMVQEHDEPILKHLKDIKVKFSDAGQPMSFVLEFHFEPNEYFTNEVLTKTYRMRSEPDDSDPFSFDGPEIMGCTGCQIDWKKGKNVTLKTIKKKQKHKGRGTVRTVTKTVSNDSFFNFFAPPEVPESGDLDDDAEAILAADFEIGHFLRERIIPRSVLYFTGEAIEDDDDDYDEEGEEADEEGEEEGDEENDPDYDPKKDQNPAECKQQ
  binding result: binds
